We go through two molecules from paper PMC2480485 (Journal of Biomolecular Nmr, 2008).

The target in experiment [1] is mouse Src SH3 domain, residues 85-142 (mouse) (UniProt P05480). In words: NMR titration.
Experiment [2] has the same target. In words: paramagnetic relaxation enhancement NMR.
For experiment [3], the target named is mouse Src SH3 domain, residues 85-142 (mouse, UniProt P05480-2 85-142). In words: NMR titration.

Regarding “peptide P3Tm (RALP-TOAC-IPKL, TOAC within the core binding motif of the FAK peptide)”, the Kd (in general, the equilibrium constant for the complex coming apart) in experiment [1] was 900 µM. In addition, the fraction of protein bound in experiment [2] came to 44%.

The molecule Ac-RALPSIPKL-NH2 [peptide P3 (unlabelled control peptide derived from focal adhesion kinase, RALPSIPKL)] had a Kd in experiment [3] of 56 ± 11 µM.
